Assays:
[1] = target: T1, synthetic polypeptide 20-mer … of the breast mucin tandem repeat; assay: binding to synthetic 20-mer
T1 construct: also called synthetic peptide started at the beginning of the 20 amino acid repeat

[2] = target: T2, synthetic polypeptide 20-mer APPAHGVTSAPDTRPAPGST of the breast mucin tandem repeat; assay: binding to synthetic 20-mer
T2 construct: also called synthetic peptide started in the middle of the repeat
T2 peptide: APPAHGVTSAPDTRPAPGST

T1 sequence (peptide, as listed by the source): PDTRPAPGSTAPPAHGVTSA

binding result [1]: binds
binding result [2]: binds
B1: murine BrE-3 monoclonal antibody (antibody, V domains shown)
VH: EVKLEESGGGLVQPGGSMKLSCAASGFTFSDAWMDWVRQSPEKGLEWVAEIRNKANNHATYYDESVKGRFTISRDDSKSRVYLQMISLRAEDTGLYYCTGEFANWGQGTLVTVSA
VL: DVVMTQTPLSLPVSLGDQASISCRSSQNLVHNNGNTYLYWFLQKSGQSPKLLIYRASIRFSGVPDRFSGSGSETDFTLKISRVEAEDLGVYFCFQGTHVPWTFGGGTKLEIK
notes: Whole murine antibody; The entries are printed with a 19-residue leader; also called anti-BrE-3 murine antibody; murine BrE-3 antibody
